Source: IntAct's records for PubMed 35512704

B1: Speckle-type POZ protein (Homo sapiens), O43791 (parent)
chain: MSRVPSPPPPAEMSSGPVAESWCYTQIKVVKFSYMWTINNFSFCREEMGEVIKSSTFSSGANDKLKWCLRVNPKGLDEESKDYLSLYLLLVSCPKSEVRAKFKFSILNAKGEETKAMESQRAYRFVQGKDWGFKKFIRRDFLLDEANGLLPDDKLTLFCEVSVVQDSVNISGQNTMNMVKVPECRLADELGGLWENSRFTDCCLCVAGQEFQAHKAILAARSPVFSAMFEHEMEESKKNRVEINDVEPEVFKEMMCFIYTGKAPNLDKMADDLLAAADKYALERLKVMCEDALCSNLSVENAAEILILADLHSADQLKTQAVDFINYHASDVLETSGWKSMVVSHPHLVAEAYRSLASAQCPFLGPPRKRLKQS
partner: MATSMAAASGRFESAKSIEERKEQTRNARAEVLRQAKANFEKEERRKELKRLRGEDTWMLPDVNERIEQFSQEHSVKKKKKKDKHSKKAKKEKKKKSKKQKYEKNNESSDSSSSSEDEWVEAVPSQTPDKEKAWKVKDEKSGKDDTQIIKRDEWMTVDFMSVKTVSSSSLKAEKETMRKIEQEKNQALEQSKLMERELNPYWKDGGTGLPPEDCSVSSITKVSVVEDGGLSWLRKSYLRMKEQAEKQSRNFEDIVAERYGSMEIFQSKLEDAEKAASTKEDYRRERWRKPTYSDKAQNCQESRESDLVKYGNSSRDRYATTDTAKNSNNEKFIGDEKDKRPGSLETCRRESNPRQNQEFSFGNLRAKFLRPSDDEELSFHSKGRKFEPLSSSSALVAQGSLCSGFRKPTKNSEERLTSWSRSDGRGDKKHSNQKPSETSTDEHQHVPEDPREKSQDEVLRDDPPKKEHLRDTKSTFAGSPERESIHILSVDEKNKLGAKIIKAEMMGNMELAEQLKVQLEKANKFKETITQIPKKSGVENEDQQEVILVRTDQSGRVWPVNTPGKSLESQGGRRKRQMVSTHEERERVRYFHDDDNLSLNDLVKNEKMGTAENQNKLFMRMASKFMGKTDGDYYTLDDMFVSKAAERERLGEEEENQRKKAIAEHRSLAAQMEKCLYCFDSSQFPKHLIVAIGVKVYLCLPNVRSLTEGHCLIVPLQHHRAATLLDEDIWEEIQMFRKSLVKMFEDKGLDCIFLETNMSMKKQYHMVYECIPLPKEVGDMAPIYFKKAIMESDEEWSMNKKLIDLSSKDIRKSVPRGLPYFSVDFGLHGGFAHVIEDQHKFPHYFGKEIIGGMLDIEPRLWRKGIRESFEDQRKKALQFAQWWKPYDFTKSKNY
B2: Mothers against decapentaplegic homolog 4 (Homo sapiens), Q13485 (parent)
chain: MDNMSITNTPTSNDACLSIVHSLMCHRQGGESETFAKRAIESLVKKLKEKKDELDSLITAITTNGAHPSKCVTIQRTLDGRLQVAGRKGFPHVIYARLWRWPDLHKNELKHVKYCQYAFDLKCDSVCVNPYHYERVVSPGIDLSGLTLQSNAPSSMMVKDEYVHDFEGQPSLSTEGHSIQTIQHPPSNRASTETYSTPALLAPSESNATSTANFPNIPVASTSQPASILGGSHSEGLLQIASGPQPGQQQNGFTGQPATYHHNSTTTWTGSRTAPYTPNLPHHQNGHLQHHPPMPPHPGHYWPVHNELAFQPPISNHPAPEYWCSIAYFEMDVQVGETFKVPSSCPIVTVDGYVDPSGGDRFCLGQLSNVHRTEAIERARLHIGKGVQLECKGEGDVWVRCLSDHAVFVQSYYLDREAGRAPGDAVHKIYPSAYIKVFDLRQCHRQMQQQAATAQAAAAAQAAAVAGNIPGPGSVGGIAPAISLSAAAGIGVDDLRRLCILRMSFVKGWGPDYPRQSIKETPCWIEIHLHRALQLLDEVLHTMPIADPQPLD
partner: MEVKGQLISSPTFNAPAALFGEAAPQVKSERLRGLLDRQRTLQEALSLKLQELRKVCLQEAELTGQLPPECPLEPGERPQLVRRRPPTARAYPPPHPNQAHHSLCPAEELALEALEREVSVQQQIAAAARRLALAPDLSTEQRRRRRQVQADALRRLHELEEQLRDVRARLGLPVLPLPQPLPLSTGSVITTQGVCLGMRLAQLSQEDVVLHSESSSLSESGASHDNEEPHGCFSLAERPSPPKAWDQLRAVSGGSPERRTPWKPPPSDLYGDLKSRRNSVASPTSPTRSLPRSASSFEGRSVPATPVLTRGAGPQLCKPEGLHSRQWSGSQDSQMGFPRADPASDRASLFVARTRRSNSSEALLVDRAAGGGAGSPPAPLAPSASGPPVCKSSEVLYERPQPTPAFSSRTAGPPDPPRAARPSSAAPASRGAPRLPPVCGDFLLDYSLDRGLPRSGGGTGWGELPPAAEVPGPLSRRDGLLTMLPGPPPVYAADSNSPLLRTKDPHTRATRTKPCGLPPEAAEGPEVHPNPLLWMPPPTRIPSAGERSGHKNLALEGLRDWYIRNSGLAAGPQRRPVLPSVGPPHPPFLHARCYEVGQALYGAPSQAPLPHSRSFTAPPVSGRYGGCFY
B3: Mothers against decapentaplegic homolog 4 (Homo sapiens), Q13485 (parent)
chain: B2 chain
partner: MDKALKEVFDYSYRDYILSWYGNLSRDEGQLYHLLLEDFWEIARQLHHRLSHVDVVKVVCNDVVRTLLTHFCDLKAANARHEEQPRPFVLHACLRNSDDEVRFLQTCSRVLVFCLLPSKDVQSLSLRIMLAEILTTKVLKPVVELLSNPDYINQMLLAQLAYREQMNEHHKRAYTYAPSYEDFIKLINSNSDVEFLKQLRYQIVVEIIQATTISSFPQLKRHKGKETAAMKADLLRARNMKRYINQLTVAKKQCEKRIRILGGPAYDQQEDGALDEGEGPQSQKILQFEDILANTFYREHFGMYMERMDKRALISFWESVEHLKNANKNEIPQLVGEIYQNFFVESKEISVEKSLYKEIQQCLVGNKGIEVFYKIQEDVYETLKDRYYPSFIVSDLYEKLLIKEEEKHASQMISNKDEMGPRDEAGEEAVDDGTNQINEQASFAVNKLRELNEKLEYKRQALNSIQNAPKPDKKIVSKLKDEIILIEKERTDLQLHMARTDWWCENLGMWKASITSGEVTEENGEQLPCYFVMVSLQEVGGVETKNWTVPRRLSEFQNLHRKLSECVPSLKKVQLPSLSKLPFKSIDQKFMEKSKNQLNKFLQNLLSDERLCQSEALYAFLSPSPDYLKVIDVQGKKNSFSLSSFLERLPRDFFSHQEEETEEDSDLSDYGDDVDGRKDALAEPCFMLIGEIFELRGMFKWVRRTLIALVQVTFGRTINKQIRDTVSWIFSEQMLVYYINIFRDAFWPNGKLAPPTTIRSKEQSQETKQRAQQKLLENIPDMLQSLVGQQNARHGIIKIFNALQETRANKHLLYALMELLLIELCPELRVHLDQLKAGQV
B4: Speckle-type POZ protein (Homo sapiens), O43791 (parent)
chain: B1 chain
partner: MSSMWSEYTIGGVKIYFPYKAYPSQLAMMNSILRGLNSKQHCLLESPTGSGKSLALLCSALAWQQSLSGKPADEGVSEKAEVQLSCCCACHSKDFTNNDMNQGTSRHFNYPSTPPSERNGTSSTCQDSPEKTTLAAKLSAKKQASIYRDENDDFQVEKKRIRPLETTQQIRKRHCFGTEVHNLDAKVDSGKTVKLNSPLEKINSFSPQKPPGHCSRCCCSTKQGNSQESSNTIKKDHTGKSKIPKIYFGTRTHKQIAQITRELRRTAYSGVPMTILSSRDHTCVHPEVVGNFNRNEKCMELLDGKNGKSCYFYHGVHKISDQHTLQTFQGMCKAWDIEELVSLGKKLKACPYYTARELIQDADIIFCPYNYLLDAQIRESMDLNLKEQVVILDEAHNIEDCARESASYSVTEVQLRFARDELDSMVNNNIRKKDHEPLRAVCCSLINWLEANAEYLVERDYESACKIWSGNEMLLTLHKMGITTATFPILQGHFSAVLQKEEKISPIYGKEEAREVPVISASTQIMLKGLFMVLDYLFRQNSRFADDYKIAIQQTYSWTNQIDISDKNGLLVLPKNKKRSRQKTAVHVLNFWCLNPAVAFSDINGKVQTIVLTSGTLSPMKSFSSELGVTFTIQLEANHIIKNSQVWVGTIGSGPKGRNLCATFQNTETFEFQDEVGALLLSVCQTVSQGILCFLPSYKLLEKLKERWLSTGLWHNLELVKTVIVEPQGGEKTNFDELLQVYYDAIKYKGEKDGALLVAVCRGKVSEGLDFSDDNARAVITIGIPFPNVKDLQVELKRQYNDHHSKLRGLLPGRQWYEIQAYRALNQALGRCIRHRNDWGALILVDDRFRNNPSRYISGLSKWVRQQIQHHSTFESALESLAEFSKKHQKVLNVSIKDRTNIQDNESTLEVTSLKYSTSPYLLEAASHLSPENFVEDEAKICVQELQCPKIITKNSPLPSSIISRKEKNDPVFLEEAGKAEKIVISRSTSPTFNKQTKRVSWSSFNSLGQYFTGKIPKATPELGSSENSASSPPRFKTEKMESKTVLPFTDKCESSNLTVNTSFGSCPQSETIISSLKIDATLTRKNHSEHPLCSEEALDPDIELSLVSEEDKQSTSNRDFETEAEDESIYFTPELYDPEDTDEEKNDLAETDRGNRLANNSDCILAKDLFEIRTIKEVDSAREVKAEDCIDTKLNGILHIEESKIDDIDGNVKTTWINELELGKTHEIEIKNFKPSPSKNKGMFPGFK

Variants of: B1
Conditions: with CWF19L2, Q2TBE0

effect of a mutation on the interaction | Variant
with no effect | F133L

Variants of: B1
Conditions: with CWF19L2, Q2TBE0
Remark: another data set of the same source

effect of a mutation on the interaction | Variant
with no effect | F102C

Variants of: B1
Conditions: with CWF19L2, Q2TBE0
Remark: another data set of the same source

effect of a mutation on the interaction | Variant
with no effect | Y87C

Variants of: B2
Conditions: with cc120_human CCDC120, Q96HB5

effect of a mutation on the interaction | Variant
with no effect | G386D

Variants of: B2
Conditions: with cc120_human CCDC120, Q96HB5
Remark: another data set of the same source

effect of a mutation on the interaction | Variant
increasing interaction strength | G386D

Variants of: B2
Conditions: with cc120_human CCDC120, Q96HB5
Remark: another data set of the same source

effect of a mutation on the interaction | Variant
with no effect | R361C

Variants of: B3
Conditions: with snx25_human SNX25, Q9H3E2

effect of a mutation on the interaction | Variant
with no effect | G386D

Variants of: B3
Conditions: with snx25_human SNX25, Q9H3E2
Remark: another data set of the same source

effect of a mutation on the interaction | Variant
with no effect | R361H

Variants of: B4
Conditions: with fancj_human BRIP1, Q9BX63

effect of a mutation on the interaction | Variant
with no effect | Y87C

Variants of: B4
Conditions: with fancj_human BRIP1, Q9BX63
Remark: another data set of the same source

effect of a mutation on the interaction | Variant
with no effect | F133L

Variants of: B4
Conditions: with fancj_human BRIP1, Q9BX63
Remark: another data set of the same source

effect of a mutation on the interaction | Variant
with no effect | F133V
